Test results taken from US20080070791A1 (ZEPHYR PROTEOMIX, published 2008).

Target: T1, α4β1 integrin expressed on Jurkat cells (human, UniProt P13612 34-1032; P05556 21-798)
T1 construct: whole, on cells; Fluorescence-labeled Jurkat cells applied to the microarray; also called receptor recognizing the CS1 peptide
Test: cell adhesion of labeled Jurkat cells on microarray
Description: Jurkat T-cells, a human leukemia line, were grown under the appropriate growing conditions. Shortly before the adherence assay, cells were washed with 5 mM EDTA in Tris-buffered saline (TBS, 10 mM Tris-HCl, pH 7.4, 150 mM NaCl) and then incubated with Cyto 82 (2 μM final concentration) for 30 min under continuous agitation. Labeled cells were washed twice with the same buffer and applied directly on the fabricated microarray slides.
The model of interaction chosen for this purpose was α4β1-CS1-interaction model. α4β1 is an integrin expressed by several types of adherent cells and can mediate cell matrix contact trough the known ligand fibronectin. […] The slides were washed extensively and the interaction was scanned by the microarray scanner (FIG. 12).

T1 sequence (P13612 34-1032, chain 1 of 2): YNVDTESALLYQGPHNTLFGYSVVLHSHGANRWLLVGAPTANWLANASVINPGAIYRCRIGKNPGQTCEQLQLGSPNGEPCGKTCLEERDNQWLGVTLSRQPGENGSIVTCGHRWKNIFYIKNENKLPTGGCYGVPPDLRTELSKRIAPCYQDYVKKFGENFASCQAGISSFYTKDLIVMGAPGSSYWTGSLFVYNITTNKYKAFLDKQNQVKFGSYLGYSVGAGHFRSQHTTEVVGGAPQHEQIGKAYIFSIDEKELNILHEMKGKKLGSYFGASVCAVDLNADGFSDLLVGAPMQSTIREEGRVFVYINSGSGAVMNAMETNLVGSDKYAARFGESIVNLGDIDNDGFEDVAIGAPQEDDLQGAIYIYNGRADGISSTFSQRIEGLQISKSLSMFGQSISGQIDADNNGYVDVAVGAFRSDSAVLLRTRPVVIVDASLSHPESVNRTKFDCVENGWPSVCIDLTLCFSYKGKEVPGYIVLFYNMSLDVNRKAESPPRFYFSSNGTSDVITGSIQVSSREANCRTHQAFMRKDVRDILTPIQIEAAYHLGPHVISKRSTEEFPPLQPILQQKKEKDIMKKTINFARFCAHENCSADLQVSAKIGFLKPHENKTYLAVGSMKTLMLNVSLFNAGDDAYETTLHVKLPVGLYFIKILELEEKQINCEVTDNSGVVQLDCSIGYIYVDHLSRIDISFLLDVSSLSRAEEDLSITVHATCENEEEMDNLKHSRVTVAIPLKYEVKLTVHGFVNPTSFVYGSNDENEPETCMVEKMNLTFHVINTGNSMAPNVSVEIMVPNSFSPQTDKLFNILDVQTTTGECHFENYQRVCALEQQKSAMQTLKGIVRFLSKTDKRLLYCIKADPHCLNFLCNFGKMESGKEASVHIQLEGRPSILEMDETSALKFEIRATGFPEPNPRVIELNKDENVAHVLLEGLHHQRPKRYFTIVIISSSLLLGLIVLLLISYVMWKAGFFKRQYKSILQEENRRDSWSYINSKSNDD
T1 sequence (P05556 21-798, chain 2 of 2): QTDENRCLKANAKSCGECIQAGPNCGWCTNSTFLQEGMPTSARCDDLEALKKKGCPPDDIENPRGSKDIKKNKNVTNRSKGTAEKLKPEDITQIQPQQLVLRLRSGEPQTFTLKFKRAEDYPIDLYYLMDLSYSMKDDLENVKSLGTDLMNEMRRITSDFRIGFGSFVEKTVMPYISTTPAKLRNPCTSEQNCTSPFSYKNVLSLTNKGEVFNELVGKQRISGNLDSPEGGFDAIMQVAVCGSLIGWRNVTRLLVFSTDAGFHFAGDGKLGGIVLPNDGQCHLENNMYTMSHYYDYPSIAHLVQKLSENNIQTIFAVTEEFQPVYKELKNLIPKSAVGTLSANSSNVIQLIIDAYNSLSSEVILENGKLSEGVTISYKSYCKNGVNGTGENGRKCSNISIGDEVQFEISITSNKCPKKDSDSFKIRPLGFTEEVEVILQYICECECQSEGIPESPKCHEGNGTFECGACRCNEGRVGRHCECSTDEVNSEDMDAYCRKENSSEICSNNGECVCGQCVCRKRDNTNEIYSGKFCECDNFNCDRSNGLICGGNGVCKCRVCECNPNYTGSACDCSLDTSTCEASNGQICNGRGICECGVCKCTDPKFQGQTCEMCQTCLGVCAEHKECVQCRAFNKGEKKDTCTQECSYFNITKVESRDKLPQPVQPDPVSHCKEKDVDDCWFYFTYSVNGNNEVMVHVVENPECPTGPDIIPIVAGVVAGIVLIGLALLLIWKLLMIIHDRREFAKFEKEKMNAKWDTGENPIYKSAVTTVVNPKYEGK

B1: recombinant protein comprising the cellulose binding region of SEQ ID NO:4 (other)
chain: NATPTKGATPTNTATPTKSATATPTRPSVPTNTPTNTPANTPVSGNLKVEFYNSNPSDTTNSINPQFKVTNTGSSAIDLSKLTLRYYYTVDGQKDQTFWCDHAAIIGSNGSYNGITSNVKGTFVKMSSSTNNADTYLEISFTGGTLEPGAHVQIQGRFAKNDWSNYTQSNDYSFKSASQFVEWDQVTAYLNGVLVWGKEPGGSVVPSTQPVTTPPATTKPPATTKPPATTIPPSDDPNA
Does B1 bind?
Result: no binding (tested: highest array concentration)
